Assay [1] deals with T1, human CD47 on cells (SHP-77 tumor cells, human red blood cells, CCRF-CEM cells, human CD47 CHO-K1 stable cell … (human, UniProt Q08722 19-323)). The assay is described as follows: cell-based or functional assay.
In assay [2] the target is T1, human CD47 on cells (SHP-77 tumor …). The assay is described as follows: flow cytometry on human RBCs.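 Further: antibody binding measured by flow cytometry as geometric mean fluorescence intensity over a range of antibody concentrations, with EC50 and maximum taken from a sigmoidal dose-response fit.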 For orientation: In flow cytometry, cells or beads pass a laser one at a time.
Assay [3] has the same target. The assay is described as follows: flow cytometry on SHP-77 cells.
Assay [4] deals with T2, Human CD47-C33G (human, UniProt Q08722 19-135).
T2 construct: also called CD47 mutein with C33G mutation
Briefly: SPR, IgG captured, CD47 in flow; exp 3.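 Further: other target is a CD47 mutein carrying C33G, used to obtain true monovalent affinity, with kon and koff fitted from SPR binding curves and KD derived from both rates.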 For orientation: Surface plasmon resonance follows binding to a sensor surface in real time, without labels.

The target of assay [5] is T3, wild type human CD47 (Acro Biosystems, cat. no. CD7-H5227) (human, UniProt Q08722 19-139).
T3 construct: Bought protein used as SPR analyte; also called Human CD47 wt; wild-type CD47
The assay is described as follows: SPR, IgG captured, CD47 in flow; exp 3.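 Further: other target is a CD47 mutein carrying C33G, used to obtain true monovalent affinity, with kon and koff fitted from SPR binding curves and KD derived from both rates.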

For assay [6], the target named is T4, cynomolgus CD47 on CHO-K1 stable cell line (cynomolgus, UniProt A0A5F8AK49 19-323 (rhesus entry)).
T4 construct: whole, on cells; also called cynomolgus CD47/CHO-K1
Briefly: flow cytometry on cynomolgus CD47 CHO-K1 cells; plateau not reached, not accurate.

Assay [7] has as its target T1, human CD47 on cells (SHP-77 tumor …). The assay is described as follows: flow cytometry on human CD47 CHO-K1 cells; plateau not reached, not accurate.
The target of assay [8] is T2, Human CD47-C33G. Briefly: SPR, IgG captured, CD47 in flow; exp 4.
Assay [9] addresses T3, wild type human CD47 (Acro Biosystems, …). Briefly: SPR, IgG captured, CD47 in flow; exp 4.
Assay [10] addresses T2, Human CD47-C33G. Briefly: SPR, IgG captured, CD47 in flow; exp 2; estimated, out of instrument limit.
Assay [11] addresses T2, Human CD47-C33G. The assay is described as follows: SPR, IgG captured, CD47 in flow; exp 2.
Assay [12] deals with T3, wild type human CD47 (Acro Biosystems, …). Briefly: SPR, IgG captured, CD47 in flow; exp 2.
Assay [13] deals with T2, Human CD47-C33G. Briefly: SPR, IgG captured, CD47 in flow; exp 2. This is another data set of the same source.
Assay [14] concerns the target T2, Human CD47-C33G. Briefly: SPR, IgG captured, CD47 in flow; exp 2; estimated, out of instrument limit. This is another data set of the same source.
Assay [15] has as its target T2, Human CD47-C33G. The assay is described as follows: SPR, IgG captured, CD47 in flow; exp 2. The source holds these as a separate data set.
Assay [16] concerns the target T3, wild type human CD47 (Acro Biosystems, …). Briefly: SPR, IgG captured, CD47 in flow; exp 2. The source holds these as a separate data set.
In assay [17] the target is T1, human CD47 on cells (SHP-77 tumor …). Briefly: flow cytometry on human CD47 CHO-K1 cells.
Assay [18] has the same target. The assay is described as follows: flow cytometry on human RBCs; plateau not reached, not accurate.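 Further: antibody binding measured by flow cytometry as geometric mean fluorescence intensity over a range of antibody concentrations, with EC50 and maximum taken from a sigmoidal dose-response fit.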
For assay [19], the target named is T2, Human CD47-C33G. The assay is described as follows: SPR, IgG captured, CD47 in flow; exp 4. The source holds these as a separate data set.
The target in assay [20] is T3, wild type human CD47 (Acro Biosystems, …). Briefly: SPR, IgG captured, CD47 in flow; exp 4. This is another data set of the same source.
In assay [21] the target is T4, cynomolgus CD47 on CHO-K1 stable cell …. The assay is described as follows: flow cytometry on cynomolgus CD47 CHO-K1 cells.

Residue numbers refer to the chain shown, from its start. Names and notes keep the numbering of the source.

B1: 108VH10.Mk / 108VL10.Me (antibody, V domains shown)
VH: EVQLVESGGGLVQPGGSLRLSCAASGFTFSHHWIHWVRQAPGKGLEWVAMIDASDSETRLSQKVKDRFTISADTSKNTAYLQMNSLRAEDTAVYYCSRLGRYYFDYWGQGTLVTVSS
VL: DIQMTQSPSSLSASVGDRVTITCRASQSISSYLNWYQQKPGKAPKLLIYGASSRYSGVPSRFSGSRSGTDFTLTISSLQPEDFATYYCGESYGHLYTFGQGTKVEIK
notes: 4D5-framework series; also called VH10.Mk VL10.Me
The EC50 is the concentration needed to bring the measured effect to its halfway point. Low values mean a more potent agent, high ones a less potent agent. Broadly, the Kd is the concentration at which binding is half-saturated. A word on the koff: it is the first-order rate constant of dissociation. The kon is a measure of how fast the partners come together. Lower therefore signals slow association. In the case of B1, in assay [1], the “CCRF-CEM phagocytosis EC50” value was found to be 0.29 nM and the “CCRF-CEM phagocytosis, Phagocytosis (%)” value amounted to 57.6%. In addition, in assay [2], the EC50 came to 3.9 nM and the “Fitted Maximal MFI” value was found to be 21700 MFI. Also, in assay [3], the half-maximal effective concentration (EC50) was found to be 5.3 nM and the “Fitted Maximal MFI” value was 30000 MFI. In addition, in the assay with Human CD47-C33G [4], binding was characterised by a dissociation constant (Kd) of 87 nM, the off-rate constant (koff) turned out to be 0.019 s⁻¹ and the kon amounted to 210000 M⁻¹ s⁻¹. In assay [5], the affinity, expressed as Kd, was 9 nM; the koff was 0.0086 s⁻¹; the kon is 950000 M⁻¹ s⁻¹. This molecule also displayed a concentration giving a half-maximal response (EC50) in assay [6] of 6.4 nM. Moreover, the EC50 in assay [7] is 5.4 nM.

B2: 108VH10.Mq / 108VL10.Me (antibody, V domains shown)
VH: B1 VH with Q62D, K63S, D66G
VL: B1 VL
notes: 4D5-framework series; constant regions not restated for this series; also called VH10.Mq VL10.Me
Regarding B2, in assay [1], the “CCRF-CEM phagocytosis EC50 (nM); plateau not reached” value worked out at 2.3 nM. The concentration for a half-maximal effect (EC50) is 3.9 nM in assay [2], 8 nM in [3], 8.4 nM in assay [6] and 6.4 nM in assay [7]. Besides, the “Fitted Maximal MFI” value was 19400 MFI in [2] and 27400 MFI in assay [3]. In addition, the figures for the Kd (with Human CD47-C33G [8]; in assay [9]) were 120 nM and 7.5 nM, respectively. Further, the results for the koff (with Human CD47-C33G [8]; in assay [9]) were 0.024 s⁻¹ and 0.0045 s⁻¹, respectively. The figures for the kon (with Human CD47-C33G [8]; in [9]) were 190000 M⁻¹ s⁻¹ and 600000 M⁻¹ s⁻¹, respectively.

B3: 108VH10.Mc / 108VL10.M1 (antibody, V domains shown)
VH: B1 VH with F27Y, T28S, S30T, H35S, A53P, V64F
VL: B1 VL with Q27E, S28N, I29V, S30G, S31T, L33I, N34S, S53N, S56T
notes: 4D5-framework series; constant regions not restated for this series; also called VH10.Mc VL10.M1
In the case of B3, the dissociation constant Kd in the assay with Human CD47-C33G [10] was greater than 1600 nM; in [12], 21 nM. For the same molecule, the figures for the koff (with Human CD47-C33G [10]; in assay [12]) were greater than 0.1 s⁻¹ and 0.0054 s⁻¹, respectively. Besides, the kon worked out at 61000 M⁻¹ s⁻¹ in the assay with Human CD47-C33G [11] and 250000 M⁻¹ s⁻¹ in assay [12].

B4: 108VH10 / 108VL10.Mb (antibody, V domains shown)
VH: B1 VH with F27Y, T28S, S30T, A53P, V64F
VL: B1 VL with Q27E, S28N, I29V, S30G, S31T, L33I, N34S, G50A, S53N, S56T
notes: 4D5-framework series; constant regions not restated for this series; also called VH10 VL10.Mb
Turning to B4, in the assay with Human CD47-C33G [13], the “fold reduction of mono-valent binding affinity against the straight-graft antibody” value was 7.7 fold. For the same molecule, in the assay with Human CD47-C33G [11], binding was characterised by a dissociation constant (Kd) of 330 nM, the koff is 0.016 s⁻¹ and the kon came out at 47000 M⁻¹ s⁻¹. Also, in assay [12], the Kd worked out at 38 nM, the koff is 0.011 s⁻¹ and the kon came out at 290000 M⁻¹ s⁻¹.

B5: 108VH10.Mf / 108VL10.M1 (antibody, V domains shown)
VH: B1 VH with F27Y, T28S, S30T, A53P, S61V, Q62D, K63S, D66G
VL: B1 VL with Q27E, S28N, I29V, S30G, S31T, L33I, N34S, S53N, S56T
notes: 4D5-framework series; constant regions not restated for this series; also called VH10.Mf VL10.M1
B5: in the assay with Human CD47-C33G [13], the “fold reduction of mono-valent binding affinity compared to 108VH10” value turned out to be 6.7 fold. In the assay with Human CD47-C33G [11], the Kd was determined as 290 nM, the koff was determined as 0.014 s⁻¹ and the on-rate (kon) amounted to 49000 M⁻¹ s⁻¹. In [12], the Kd was 30 nM, the off-rate constant (koff) amounted to 0.0071 s⁻¹ and the on-rate (kon) came to 230000 M⁻¹ s⁻¹.

B6: 108VH10.Mr / 108VL10.Me (antibody, V domains shown)
VH: B1 VH with S61V, Q62D, K63S, D66G
VL: B1 VL
notes: 4D5-framework series; constant regions not restated for this series; also called VH10.Mr VL10.Me
As to B6, in assay [1], the “CCRF-CEM phagocytosis EC50” value came out at 0.43 nM and the “CCRF-CEM phagocytosis, Phagocytosis (%)” value stood at 49.8%. Moreover, in assay [2], the 50% effective concentration (EC50) amounted to 8.1 nM and the “Fitted Maximal MFI” value was 15700 MFI. Further, in assay [3], it took 14.4 nM to reach a half-maximal effect (EC50) and the “Fitted Maximal MFI” value was 25400 MFI. In the assay with Human CD47-C33G [8], the dissociation constant (Kd) amounted to 160 nM, the koff turned out to be 0.025 s⁻¹ and the kon turned out to be 150000 M⁻¹ s⁻¹. In assay [9], this molecule came in with a Kd of 8.8 nM, a koff of 0.0031 s⁻¹ and a kon of 360000 M⁻¹ s⁻¹. For the same molecule, the EC50 in assay [6] was found to be 49.9 nM. The same molecule gave an EC50 in assay [7] of 15.7 nM.

B7: 108VH5.M11 / 108VL1.M5 (antibody, human IgG4 S228P, kappa, V domains shown)
VH: EVQLVQSGAEVKKPGASVKVSCKASGYTFTHHYIHWVRQAPGQGLEWMGMIDASDSETRYAQKFQGRVTMTRDTSTSTVYMELSSLRSEDTAVYYCARLGRYYFDYWGQGTLVTVSS
VL: EIVLTQSPATLSLSPGERATLSCRASQSVSSYLAWYQQKPGQAPRLLIYGASNRATGIPARFSGSGSGTDFTLTISSLEPEDFAVYYCGESYGHLYTFGGGTKVEIKR
notes: Full-length IgG4 (S228P), kappa; also called VH5.M11 VL1.M5
As to B7, in [2], the EC50 stood at 178 nM and the “Fitted Maximal MFI” value came to 1540 MFI. In [3], the EC50 is 797 nM and the “Fitted Maximal MFI” value amounted to 4000 MFI. For the same molecule, in the assay with Human CD47-C33G [14], the Kd is greater than 530 nM and the dissociation rate constant (koff) was greater than 0.1 s⁻¹. For the same molecule, the kon in the assay with Human CD47-C33G [15] worked out at 190000 M⁻¹ s⁻¹. In addition, in assay [16], the Kd was determined as 12 nM, the off-rate constant (koff) is 0.0032 s⁻¹ and the kon was 260000 M⁻¹ s⁻¹.

B8: 108VH5.M15 / 108VL1.M5 (antibody, human IgG4 S228P, kappa, V domains shown)
VH: B7 VH with Y33W, E57S
VL: B7 VL
notes: Full-length IgG4 (S228P), kappa; also called VH5.M15 VL1.M5
As for B8, the EC50 came to 155 nM in assay [2] and 396 nM in assay [3]. In addition, the “Fitted Maximal MFI” value in assay [2] was found to be 926 MFI; in [3] it was 3680 MFI. The dissociation constant Kd with Human CD47-C33G [14] is greater than 630 nM; in [16] it was 22 nM. Besides, the dissociation rate constant (koff) in the assay with Human CD47-C33G [14] is greater than 0.1 s⁻¹; in assay [16], 0.0048 s⁻¹. Besides, the results for the on-rate (kon) (in the assay with Human CD47-C33G [15]; in [16]) were 160000 M⁻¹ s⁻¹ and 220000 M⁻¹ s⁻¹, respectively.

B9: 108VH5.M22 / 108VL1.M5 (antibody, human IgG4 S228P, kappa, V domains shown)
VH: B7 VH with Y33W, I34M, S56I
VL: B7 VL
notes: Full-length IgG4 (S228P), kappa; also called VH5.M22 VL1.M5
In turn, B9 yielded a half-maximal effective concentration (EC50) in assay [17] of 3.6 nM. In [1], the “CCRF-CEM phagocytosis EC50” value came to 0.37 nM and the “CCRF-CEM phagocytosis, Phagocytosis (%)” value stood at 59.4%. Moreover, the midpoint of the response in [18], the EC50, lay at 10.1 nM. Besides, in assay [3], the midpoint of the response, the EC50, lay at 8.4 nM and the “Fitted Maximal MFI” value came to 41600 MFI. In the assay with Human CD47-C33G [19], this molecule returned a dissociation constant (Kd) of 35 nM, an off-rate constant (koff) of 0.0068 s⁻¹ and a kon of 200000 M⁻¹ s⁻¹. In [20], this molecule registered a Kd of 6.1 nM, a koff of 0.0029 s⁻¹ and an association rate constant (kon) of 480000 M⁻¹ s⁻¹. The same molecule registered an EC50 in assay [21] of 3.6 nM.
